# Assay results: the supplement of paper PMC7125110
# ± gives the standard error. Fewer inactive variants are shown than the library holds.
# B1: glmS ribozyme (parent)
# chain: AUAAAAGCGCCAGAACUACAGAAAUGUAGUUGACGAGGAGGAGGUUUAUCGAAUUUUCGGCGGAUGCCUCCAAA
# Variants of: B1
# Assay: self-cleavage kobs at 10000 uM GlcN6P; higher = faster cleavage; RNA array
# Details: with glucosamine-6-phosphate
# In short: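 Barcoded ribozyme variants on sequenced MiSeq chips were transcribed in situ by E. coli RNA polymerase and followed at 37 °C through a hybridised Cy3 probe. Glucosamine-6-phosphate at 40 μM to 10 mM in HEPES/KCl/Mg(OAc)2 buffer was flowed in, and tiles were imaged over ~14 h. Signals were normalised to baseline and to non-cleaving reference variants, and per-tile medians were fit to one- or two-exponential decays to give kobs. Weighted Michaelis–Menten fits across concentrations gave kcat and KM.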
row,Variant,self-cleavage kobs at 10000 uM GlcN6P
1,C34A G63U C70A,< 1e-05 s⁻¹
2,C10A C50U G59A,< 1e-05 s⁻¹
3,G32A G37C G40A,< 1e-05 s⁻¹
4,U46G C68U C71U,8.22e-05 ± 1.3e-05 s⁻¹
5,C16A G29U U45G,0.0036 ± 0.00061 s⁻¹
6,G44A U46A,0.000375 ± 6.2e-05 s⁻¹
7,C11G G13U C61G,< 1e-05 s⁻¹
8,G29U G60A C61A,< 1e-05 s⁻¹
9,A48U G59U C68A,< 1e-05 s⁻¹
10,C16U G62C,< 1e-05 s⁻¹
11,A42G A48U U55G,0.000404 ± 8.1e-05 s⁻¹
12,A14U U46G A53G,0.000633 ± 9.6e-05 s⁻¹
13,G44U G66C C71A,< 1e-05 s⁻¹
14,A14U A53U C68G,5.14e-05 ± 1.1e-05 s⁻¹
15,A14U A36U C50U C70A,7.4e-05 ± 2.1e-05 s⁻¹
16,A12G U46G A53U,9.96e-05 ± 1.8e-05 s⁻¹
17,C16A U31G C67U,6.54e-05 ± 1.4e-05 s⁻¹
18,A12G U46C,0.000349 ± 5.9e-05 s⁻¹
19,A33U G41C A52U A53C,< 1e-05 s⁻¹
20,A39C G40A C58G,< 1e-05 s⁻¹
21,U46A C50A G59U,< 1e-05 s⁻¹
22,C19U C68U,0.00423 ± 0.0011 s⁻¹
23,G13U U46C,3.18e-05 ± 1.1e-05 s⁻¹
24,A33G A42G G59U C61A,< 1e-05 s⁻¹

row,Variant,self-cleavage kobs at 10000 uM GlcN6P
1,C16U A53U U65G,0.00246 ± 0.00058 s⁻¹
2,A33C G38A C58A,< 1e-05 s⁻¹
3,U31A A36G U49G C50U C58A,< 1e-05 s⁻¹
4,G9C A39U A42U,< 1e-05 s⁻¹
5,U65G G66U C70A,6.2e-05 ± 1.7e-05 s⁻¹
6,A12U G44U A52G,4.49e-05 ± 1.9e-05 s⁻¹
7,G40U A48G C70A,3.93e-05 ± 9.6e-06 s⁻¹
8,C16U G41U U47A,0.000489 ± 7.1e-05 s⁻¹
9,A6U G35A U46G G51U C61A,< 1e-05 s⁻¹
10,A42C G44U G66U,< 1e-05 s⁻¹
11,A6G G7A C16G U47A A53C C58A,< 1e-05 s⁻¹
12,C11U A48G C50U C71U,< 1e-05 s⁻¹
13,G7A U55G C67U C70G,4.07e-05 ± 1.8e-05 s⁻¹
14,C34A G41A C68G,< 1e-05 s⁻¹
15,G38A G51A,< 1e-05 s⁻¹
16,A36U G59U G60C,< 1e-05 s⁻¹
17,G32C U56A C71A,3.09e-05 ± 1.5e-05 s⁻¹
18,A14C U30A U47G C70U,8.66e-05 ± 1.4e-05 s⁻¹
19,U31C C58A G63U,< 1e-05 s⁻¹
20,U46G C61G G63A,< 1e-05 s⁻¹
21,C11A C58A G59A,6.59e-05 ± 1.3e-05 s⁻¹
22,U31G A36U G40C U56G G66A,< 1e-05 s⁻¹
23,C8A U65G,< 1e-05 s⁻¹
24,G13A G38U,< 1e-05 s⁻¹

row,Variant,self-cleavage kobs at 10000 uM GlcN6P
1,G9U A12G C16A,< 1e-05 s⁻¹
2,U54A C67U C70A,4.02e-05 ± 1.6e-05 s⁻¹
3,C11U U47A U69A,4.5e-05 ± 1.5e-05 s⁻¹
4,A14C U30G A33G G37A C68G,< 1e-05 s⁻¹
5,A12C U31C G43U G44U,< 1e-05 s⁻¹
6,A6C U47G U49C C67U,< 1e-05 s⁻¹
7,G9A A15U A39G A52U G60U,< 1e-05 s⁻¹
8,G38C U45C U49A A53U,< 1e-05 s⁻¹
9,C50G U54C C71U,4.14e-05 ± 1.5e-05 s⁻¹
10,G13A G32C U69G,5.76e-05 ± 2.1e-05 s⁻¹
11,G13U C34U G63U,< 1e-05 s⁻¹
12,G32U G41A A53G,0.000262 ± 6.5e-05 s⁻¹
13,A12C U49A G66C C71U,< 1e-05 s⁻¹
14,A64G G66C C67A,0.000252 ± 7.2e-05 s⁻¹
15,C8G C61G C70A,< 1e-05 s⁻¹
16,C11G G29U C34A A36U G37U G44C C68U,< 1e-05 s⁻¹
17,G13U U30A C58U G59U,< 1e-05 s⁻¹
18,G7U A42U C67G,< 1e-05 s⁻¹
19,A53G C58U C70U,0.000123 ± 2.7e-05 s⁻¹
20,U45C U65G C67U,0.000112 ± 2.2e-05 s⁻¹
21,U47A C67U C71U,0.000453 ± 0.00017 s⁻¹
22,C8U C61U C68G,0.000133 ± 4.3e-05 s⁻¹
23,C10G C50U G62U C70G,< 1e-05 s⁻¹
24,U30A C67G C71G,< 1e-05 s⁻¹

row,Variant,self-cleavage kobs at 10000 uM GlcN6P
1,A12C G32A G38A,< 1e-05 s⁻¹
2,A6G U54A U56A,0.000141 ± 2.8e-05 s⁻¹
3,A12G A14U C58A,0.000276 ± 5.2e-05 s⁻¹
4,G29U A48G G51A,< 1e-05 s⁻¹
5,G7A A33G C50A U69A C70U,9.88e-05 ± 1.8e-05 s⁻¹
6,C11G C61G,< 1e-05 s⁻¹
7,G40C A53G G66C,0.000137 ± 2.8e-05 s⁻¹
8,C34U G38C G60C,< 1e-05 s⁻¹
9,U31A A39C U56G,0.00147 ± 0.0004 s⁻¹
10,G7A G35U U57A,< 1e-05 s⁻¹
11,G59C A64U C71G,< 1e-05 s⁻¹
12,G9U G62U,< 1e-05 s⁻¹
13,G41A C61A C68G,< 1e-05 s⁻¹
14,A6U U45G U46C,4.58e-05 ± 1.7e-05 s⁻¹
15,C10U C16U A39C U65C,< 1e-05 s⁻¹
16,A12G U30G C58A,0.000483 ± 9.8e-05 s⁻¹
17,U31G U54C C70G,0.000117 ± 2.3e-05 s⁻¹
18,G38A G59C U65C C70A,< 1e-05 s⁻¹
19,A6U C11A A39G,< 1e-05 s⁻¹
20,G9A C16G G51A G60U,< 1e-05 s⁻¹
21,G9A A15G G35A A42U C70U,< 1e-05 s⁻¹
22,G9U U30C U31C G43A U65A C68U C71A,< 1e-05 s⁻¹
23,C58A G60C,< 1e-05 s⁻¹
24,C11U U31G U49A G62A,< 1e-05 s⁻¹

row,Variant,self-cleavage kobs at 10000 uM GlcN6P
1,C10U G35U A42G U56G,< 1e-05 s⁻¹
2,G13C U55G C58G,4.29e-05 ± 1.4e-05 s⁻¹
3,G37U G44U G60U,< 1e-05 s⁻¹
4,G9C G13C A14U U31A A48G C61A,< 1e-05 s⁻¹
5,A36C U56C,< 1e-05 s⁻¹
6,A42G C58G G66A,5.14e-05 ± 1.9e-05 s⁻¹
7,A15C C16G U31A,0.000253 ± 7.3e-05 s⁻¹
8,A15G C61G G62C,< 1e-05 s⁻¹
9,C11G A36C G37C U46G G60A,< 1e-05 s⁻¹
10,G29U U46G C68U,0.000229 ± 4.1e-05 s⁻¹
11,C8A G38A G40C U57C,< 1e-05 s⁻¹
12,G51C G60U C71A,< 1e-05 s⁻¹
13,A39C G44C C50G U55G C67U,< 1e-05 s⁻¹
14,A14U A42U U57C,< 1e-05 s⁻¹
15,A48U A52G U55A A64G,4.66e-05 ± 1.1e-05 s⁻¹
16,U30A A33U G37C U69A,< 1e-05 s⁻¹
17,G32A A42G A53G,0.00295 ± 0.00072 s⁻¹
18,A14C U31C G41A,7.28e-05 ± 1.8e-05 s⁻¹
19,A52U U65A,2.95e-05 ± 9.7e-06 s⁻¹
20,G7U A14U G38C U57C G60U C67U,< 1e-05 s⁻¹
21,C11A A12C U31C U49A,< 1e-05 s⁻¹
22,G9A A12U C70G,< 1e-05 s⁻¹
23,C10A G59U,7.46e-05 ± 7.9e-06 s⁻¹
24,G35U U47C G51U,< 1e-05 s⁻¹

row,Variant,self-cleavage kobs at 10000 uM GlcN6P
1,G44U C58U G62U C68A,< 1e-05 s⁻¹
2,C11A A15G U57A G62U,< 1e-05 s⁻¹
3,A15G C16U U47C U65A U69C,6.04e-05 ± 2.9e-05 s⁻¹
4,G9U G41U A42G A52U A64U C68U,< 1e-05 s⁻¹
5,A6C A36U U69A,< 1e-05 s⁻¹
6,A14C A36G G51U,< 1e-05 s⁻¹
7,G9A U56C C58G,< 1e-05 s⁻¹
8,U30C G66A C71U,0.000123 ± 2.3e-05 s⁻¹
9,U57C U65C C71A,< 1e-05 s⁻¹
10,A6G A12C A33G U45A G62U,< 1e-05 s⁻¹
11,G32C G38U A42C G43C A52C,< 1e-05 s⁻¹
12,A15C U31A G38C G41C,< 1e-05 s⁻¹
13,C10U A12G G13U A14C G41A,< 1e-05 s⁻¹
14,G7A U57A C58A,< 1e-05 s⁻¹
15,C8A C34U A64U C68U,< 1e-05 s⁻¹
16,A42U G44C G62U C70G,< 1e-05 s⁻¹
17,A15G G32U G43U C61G G63U A64G G66A,< 1e-05 s⁻¹
18,G37A G40A C58U G66C,< 1e-05 s⁻¹
19,C8G A12C A33C,< 1e-05 s⁻¹
20,A15U G43A A64U C68G,< 1e-05 s⁻¹
21,C10U A15U U45A,< 1e-05 s⁻¹
22,A14G C34G G44U A52C C58A G59A G63U C71G,< 1e-05 s⁻¹
23,C11U U31C A42G A53U,0.000372 ± 8e-05 s⁻¹
24,G9U G13A U55G,< 1e-05 s⁻¹

row,Variant,self-cleavage kobs at 10000 uM GlcN6P
1,U54A U57G,5.94e-05 ± 1.1e-05 s⁻¹
2,G44A U46G U54G,0.000373 ± 0.0001 s⁻¹
3,A12U A42U C70U,0.00014 ± 3.1e-05 s⁻¹
4,A12C G62U C71U,< 1e-05 s⁻¹
5,G21U A52G,0.00145 ± 0.0003 s⁻¹
6,A33G A36G A39U A53G,< 1e-05 s⁻¹
7,G9U A42U U55G,< 1e-05 s⁻¹
8,U49C C50U U56C,< 1e-05 s⁻¹
9,A12U G29C U46A,0.000658 ± 0.00018 s⁻¹
10,A6U U45G G66A,0.000175 ± 4.1e-05 s⁻¹
11,G29C G32U C70A,0.000104 ± 2.2e-05 s⁻¹
12,A33C C50A C67G C68G,7.88e-05 ± 2.1e-05 s⁻¹
13,A15U C58U G59U,< 1e-05 s⁻¹
14,U55C U57A,0.00024 ± 4.6e-05 s⁻¹
15,G37A U45A C61U C67U,< 1e-05 s⁻¹
16,C16U G32A U57C,2.6e-05 ± 1.3e-05 s⁻¹
17,A6U G9A G29C C50U U69G,9.44e-05 ± 3.8e-05 s⁻¹
18,A14U G44U U45G U46G,4.76e-05 ± 1.9e-05 s⁻¹
19,G29U A53C G60A,< 1e-05 s⁻¹
20,G35C C50A G51A,< 1e-05 s⁻¹
21,G13U A42G C50U,< 1e-05 s⁻¹
22,G7A C8G G9C G29U G35C G37A,< 1e-05 s⁻¹
23,A15G A53U U69G,5.88e-05 ± 1.8e-05 s⁻¹
